According to patent US20250092127A1 (Regeneron, published 2025):

Target: T1, mouse IL-4R (mouse, UniProt P16382 26-233, limits assumed)
T1 sequence (looked up): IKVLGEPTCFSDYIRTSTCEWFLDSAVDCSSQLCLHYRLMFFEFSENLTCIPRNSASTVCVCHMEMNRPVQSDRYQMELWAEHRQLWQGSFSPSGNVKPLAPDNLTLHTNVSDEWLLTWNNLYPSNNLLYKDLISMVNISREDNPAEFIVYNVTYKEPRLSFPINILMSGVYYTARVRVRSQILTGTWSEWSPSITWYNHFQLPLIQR
Experiment: cell-based or functional assay

- IC50 of inhibition of IL-4-dependent proliferation of cell lines: 1.9 nM
- IC50 of inhibition of IL-13-dependent proliferation of cell lines: 0.011 nM
B1: REGN1103 (antibody, V domains shown)
VH: EVQLQQSGPELVKPGASVRMSCKASGYTFTDYNIHWVKQSHGKSLEWIGYIYPNNGDNGYNQKFRGKATLTVDKSSSTAYMELRSLTSDDSAVYYCARGRLRYFDVWGTGTTVTVSS
VL: NIVLTQSPASLAVSLGQRATISCRASESVDNYGHSFMHWYQQKPGQPPKLLIYLASNLESGVPARFSGSGSRTDFTLTLDPVEADDAATYYCQQYNEDPPTFGSGTKLEIK
